Experimental data taken from patent publication US20260117244A1, “INHIBITORY RNA FOR THE CONTROL OF PHYTOPATHOGENS” (priority 2021, published 2026).

Test system: G. orontii MGH1
Experiment: Spray-induced gene silencing (SIGS), G. orontii spore production on A. thaliana (whole plant and detached leaf assays)
Format: in vivo, Golovinomyces orontii
Conditions: topical dsRNA against G. orontii target (Gor Seq ID); detached leaf assay; n>=3

| Molecule | G. orontii Spore Production on Arabidopsis, Detached Leaf Assay, % reduction [%] |
| --- | --- |
| 32 (nucleic acid, listed as Golovinomyces orontii, listed as DNA) GGTTCATCACCTCTAAATTTGTGAAGAGGTTTCTAAAAGATTCATCTCATCTCATAGCCAGAATTTAGACGCTGTATAAACGATGTTTGGGTCAGGATGTCCGATCAGAATGTATCCAAGAGTCAAGCGTAAATTCTGCAGGCTAGATGTATTTCGTCCCATCATGAATCGTAGATACAAAAGCGGACCTTTTGGCTATACGATGGCACAGGCGCTCGTTTACATGAAGCATGGTGAACCAGACGATGTACTCTCTCTTCATCGTCACTCCATTACACCTACACTTCCACCAGATTCTATTTTCTTACGGACACTTGCAAGCCCAATCAATCCAGCCGATATCAACCAAATTCAAGGTGTCTATCCGTTAAAACCAGAATTCTCGCCTCTACTTGGTACACCGCTTCCGAGCGCTGTAGGTGGGAATGAAGGCTGTTTTGAAGTTGTTTCACTCGGCTCTTCAGTGACTGATGTTAAGAAAGGCGACTGGGTGGTGGCAAATACCCCTGCACTCGGCACCTGGCGTACGCATTTGGTTGTACAGAAGTCTGATATTTTGCCCGTAGAGAAAAAAGGGTTAACCGCAACACAAGTTTGTACTGCATCGATCAATCCGCGAACAGCTTACTGCATGTTGAATAACATTGAGAAACTGCAGAAAGGTGATTGGTGGATTCAAAATGGAGCCAACAGTAGCGTGGGTCGTGCCGCAATTCAATTGGGAAAGTTATGGGGCTTTAAATCAATAAATGTCATTAGAGATCGACCAGACGTGGTATCTACCGAGTCCTTGCGGGCTGAATTGTTAGAATTAGGTGCTACACATGTTGTCACAGAAACAGAGCTGCTTGACAGAGGCTTTCGAGAGCTCGTGACGAAATGGACTAATGATAATAATAAGGGAATTAGATTAGGCTTGAACTGTGTTGGGGGTAAGTCTACAACGGCATTGGTAAAATTACTCGGGAAAAGAGGTCATTTAATCACATATGGTGGCATGTCTCGACAACCTCTACAACTTCCAACCAGCCGCCTCATATTTGATGATCTACGTTTTAGTGGCTTCTGGATTAGTCGCTGGTCCGTCGATAATCCTCGGGAAAGTCAGCACATGCTCAACAAAGTTCTGGACCTCATTCGTACAGGTTCTTTGAAGGAAACTCCTCATCACGAAATACTCTGGAATTGGGATACTAAGATTCAAGTACTCAATGAAGGAATTAAAGGTGCACTTCAGGGTTATCGAAACGCCAAAAATATTCTTGTTTACGGAGATACATAAATTTTGAGT | 50 |
| 79 (nucleic acid, listed as Golovinomyces orontii, listed as DNA) ATGTCAGCATCTAGCCTTTCTCAGTCTACAGCTGAGAAAAGACACGAAGAATATCAGTATTTAGATCTGATCTCCGAAATAGTAGAGACAGGGGAGCATCGACCAGATCGAACTGGAACTGGAACCTTTTCTTTGTTCGCGCCAAAACCTTTAAAATTCCAGCTTTCTGAATCTGGAAAGCCGATTCTGCCCCTAATTACAACCAGGCGCATCTTCTTACGTGCTGTAATCACCGAACTTCTCTGGTTCATATCCGGCTCGACCTCCTCCATTCCTCTGGTAGAAGCAGGAATAAAGATTTGGGATGGAAATGGAACCCGTGAATATCTTGATTCGGTTGGTTTATCTCATCGTGATGTTGGAGATCTTGGTCCAATATATGGATTCCAATGGCGTCATTTTGGTGCCGACTACGTTGATGCTAACACTGACTATACTGGGAAAGGGGTTGATCAACTCGCTGAAGTTGTTGCAAAACTCAAGACAAATCCATATGACCGCCGCATTATTCTTACAGCCTGGAACCCGCGGGATCTAAAGTCAATGGCTTTACCGCCTTGTCATCTTCTTGCACAATTTTACGTCTCATTCCCACAAGGTAGTAAATCTGTTGGGACTCTTCACTGTCTTTTATATCAGCGTAGCTGCGACATGGGCCTTGGAGTACCATTTAATATTGCAAGCTATGCCTTACTCACTCATATGTTGGCTCATACATGCGAACTACTGCCTGGGACTTTGACGCACACCATGGGTGATGCACATGTCTATGCCGATCATGTTGAGGCTTTAAAAACACAACTGACACGTGAGCCGCGTCCATTCCCTGAAATTGAGATTAGGAAAGAAAAAGGAGGAAGTATAGACGGCTGGCTTGTCGATGATTTTCTCATCAAAGGCTACGAACCGCACAAGTCTATCTCGATGAAGATGTCGGTGTAA | 68 |
| 64 (nucleic acid, listed as Golovinomyces orontii, listed as DNA) ATGGAGGCATGTGTGATCGACGTGGTGGCTACTAGGGTAGACGATTGCGAAACTCCAGCGTCGAAAGATACCTCCAACGCTTGGTGTCATCCAGGAGCTGCCGCTTTCGATTTTCGCAGTGATGTCTTTACTTCACCGACTTGCTCAATGCTCGAAGCAATCAAAAACACAACCTTACTCGATGATGTCTATCAGGCTGATCCTACCACAAATGATCTGGAATCACACTTGGCAGCGCGCACATCTCATGCCGCAGCACTGTTTGTCTTGTCTGGCACTATGGGGAATCAAATAGCTCTACGTTCTCACTTGCAACAACCACCGTATGCAATTCTTTGCGATCATCGAAGTCATATTTTTCAATGGGAAGCGGGCGGCGTTGCAAGTCTCTGCGGTGCACTTGTCAAAACTGTTGTACCAGCAAACGGTGAGTATCTTACTCGGGAAGATATTGAGAGTAATGTTGTGCTTGGTGATGATATTCATAGTACGCCTACTCGGGTTATATCTCTTGAAAATACACTGGGTGGCATTGTAATACCGCTAGAGGAGACGCGACGTATAACGAATTTTGCTCGAGAAAACAATATCAAGGTTCACCTTGATGGTGCACGATTGTGGGAGGCAGTCGCTGCAGGTGCAGGTTCACTTACCGATTATTGTGCTCTGTTTGATAGTGTAAGTCTATGTTTCTCCAAGGGACTCGGAGCACCAGTCGGCAGTATTTTAGTTGGTGGAGAGGCTTTTATCAAACATGCTAGATGGATAAGAAAGTCGATTGGTGGCGGCCTTCGTCAGCCTGGTCTGTTAACAGCAACAGCCAGGGTTGCTCTGGATGAAACGTTTGGAAGTGGCCCTTGGGGTGAAGGCGGAAAGCTAAAAGGCACTCACTTTGTAGCGAAAAGGATAACTGCACTCTGGACGTCGCTAGGTGGGAAACTACTGAGGAGGACCGAGACAAATATGGTTTGGTTAGATCTTGAGGGTTCTAAGATTAGTGTAGAGACGTTTGTGAAAATTGGAGCAGAGCATGGGGTAGCACTCGAAGGTCCAAGGCTAGTGGTGCATTATCAAATTGAAGACGCTGCAGTAGAGAAGTTAAAAGCAGTTTTTGAACAGGTCCTGCTTAAAACCTAG | 55 |
| 87 (nucleic acid, listed as Golovinomyces orontii, listed as DNA) ATGCCTCTACGAAGAATACTAAAGAAGTCAAAATACGCCAAAAAGAGTCCAGAAGAAGAGACTGTCATAACACCCATCTTATTTATGCGTAGCGACACAAAAACAGAGGAGATTATTTATCCACCTAGTTATCCTGATCATGAAGAATCCTTACGCAGTAAAAAGGGGCGAAACAAGAAGGAAATACCTAGGACCCCTTCGGAATCTCGTAAATCATCTCTTAGACTCAAGCCAAACTTTCTGAAAAACCAGAAATCCGAAAAGGTGCCAGAAAATCTGCCAGATATAGAGATCATTGCTGATCAGGTCGAGAGGAGAATCAGGGCACAATGGGAAAAACGTGCGACAATTCTAGCCAAAAGAAATGAGGAAACAACAGCTAAGTATCTATCAATCACTGACGATAAACATGCAAAGGAGGTGAGAATGGCGAGAGAGCTGGACGAGGCAAATTCGGCCAACGATAACATTATAGAAGCAATTAGACTACATGAAGCGGGGAGCCGGCTGGCGGAGTTCCAAAATGAGAATAATACCCTCAGTCAAGTATTGTACGGTCTTTCTTTAAGGTACGCATGGCTGGGGATGTACTCCAGATCCGGAAAAGGCACTCAAATACCTTCAGCTGCAGCATCGTGTGCAGCCTCAATCGAGGATTTAGCACTTAGGGCGGGGAAGAAAAGTGGAGGAGCAGCGAAAGATGAATTAGTTCTTGCTATTTACGAGCTCGCAAATAGTTTTAGACATGGCTGGGGAATTCCGATCGACCGAGTGGCTGCGAAACAGTACTATGAGACGGCAGCTAATTTGGGTGATACGGACGCTATGAATGAAGTGGCCCGATGTTATGCCGAAGGAATCGGTTGCAAGAAAGACATGTTTGTGGCTGCTAAATACTACAGGATGGCTGAGAGTAAGGGTAACAAAATCATTGGAAACTCCTGGTACGTTGCAATTTTTGCTCTCTAA | 42 |
| 70 (nucleic acid, listed as Golovinomyces orontii, listed as DNA) ATGTCAAGATCCCTTCACAATCTGAGCACCATTCAGAAGCTTTTTCCAATCTTGGGACCATCTCAAATTACTTCTAAGTTTTTGCTATGTTCACGTACATTATTTAGGCAGACTCGCTACAGTTCCCAATTTAATTTGGGCTATACCCGGGCCATTGAAAGGAAACCCTTAACTTTAAAGTCTATTGAATCTTTGTACAAAAGAGAGGAGCCCATCTTGGCACTCACTGCCCACGACTTTCCCAGTGGATATATTGCTGATGAAGCTGAGATTGAAATCGTACTTGTGGGAGACAGCCTGGCCATGGTAGCAATGGGGTTAGAAGATACAAGTGAGATTCTACTTGAAGAGATGCTACTCCATTGTCGCTCTGTTTCTCGAGCTGTGAAGACTGCTTTTACGGTAGGGGATCTTCCTATGGGATCCTATGAAGTATCCCCAGAACAGGCTCTAATTTCTGCTATTCGGATGATTAAGGAAGGTAGAGTAAAAGCTATTAAATTAGAAGGAGGCGCAGAAATGGGCCCAACCATAAAGAAAATAGTTACTGCCGGTATTCCGGTTCTCGGGCATATAGGGTTAACTCCGCAACGACAAAATTCTTTGGGCGGCTTCCGAGTACAAGGAAAGACCTCCAAGAGTGCACTCAAGATTCTTGAGGATGCATTAGCCATACAGGAAGCAGGCTGTTTTGCTGTTGTGATTGAGGCTATACCCGCAGAGGTAGCTACCATAATTACAAAGGAACTTTCAATCCCAACTATCGGTATTGGCGCTGGTAATGGCTGTTCAGGCCAAGTACTAGTTCAGGTTGATATGACTGGAAATTTTCCACCCGACCGTTCGATACCAAAATTTGTCAAAAAGTATTGTGACATTTGGAATGAGAGCTTGATGGGGATACGATCATATCGAGAAGAAACTAAGTGTAGGAAGTTTCCCGCACACGAACACACTTACTCAATCCCTAAAAATGAACTTGCTGAGTTCGAGAGAATACTAGCTTCTAAAGAACACTAG | 46 |
